The source of these data is patent US20020061531.

Series [1] deals with anti-BPDE-DNA monoclonal antibody 5D11 (Mus musculus). To be noted: slight cross-reaction at 20 ug/mL 5D11.
In series [2] the test system is anti-BPDE-DNA monoclonal antibody 8E11 (Mus musculus). To be noted: single (+/-)-anti-BPDE-N2-dG adduct in the SEQ:5 segment; CE/LIF; complex formation with native duplex, 20 ug/mL (printed mg/mL) 8E11.

“CCTTAAGCTTCCTCAACCACTTACCATACTCGAGATTCCCATTATGCATAACCGTCATATGCCGCCTCTGACCTTCCTAGAATTCCATCC [TMR control 90-mer (no BPDE), heat-denatured]” registered a binding signal (% of total peak area) in series [1] of 2.1.

Consider “CCTTAAGCTTCCTCAACCACTTACCATACTCGAGATTCCCATTATGCATAACCGTCATATGCCGCCTCTGACCTTCCTAGAATTCCATCC (double strand) [TMR-BPDE-90-mer, native duplex]”, for which the binding signal (fold lower than denatured) in series [2] turned out to be 6.
